Results from publication PMC6328559, “Structure of the SLy1 SAM homodimer reveals a new interface for SAM domain self-association” (Scientific Reports, 2019).

Key:
[1] = target: the molecule itself; assay: MST; Alexa Fluor 488 labelled protein kept constant (SAMwt 70 nM, SAMlg 60 nM), total protein varied (SAMwt 1.1-824 µM, SAMlg 0.2-250 µM); standard buffer pH 6.4, room temperature; fit to a monomer-dimer equilibrium; dimer to monomers
[2] = target: the molecule itself; assay: AUC; sedimentation equilibrium, 30 °C, standard buffer (50 mM potassium phosphate, 20 mM NaCl, 0.1 mM EDTA, pH 6.4) without NaN3; three loading concentrations (SAMwt 60, 120, 300 µM; SAMlg 31, 64, 98 µM) at several speeds; global fit to a monomer-dimer equilibrium; dimer to monomers

B1: SLy1 SAM domain construct SAMlg (SLy1 residues G249-E321 preceded by a glycine-proline tag) (domain or fragment, mouse)
chain: GPGKRPKPKTLHELLERIGLEEHTSTLLLNGYQTLEDFKELRETHLNELNIMDPQHRAKLLTAAELLLDYDTGSE
notes: glycine-proline left from the tag after PreScission cleavage; SLy1 (SASH3), murine, UniProtKB Q8K352, residues 249-321; 75 residues; In MST 60 nM of the protein carried amine-reactive Alexa Fluor 488; For DOSY the protein was 15N labelled; also called N-terminally extended SLy1 SAM domain construct; source: E. coli BL21(DE3), GST fusion, purified (Glutathione Sepharose, PreScission cleavage, …)
For B1, the Kd [1] was 5.4 ± 1.4 µM, the Kd [2] was 2.2 µM and the “stoichiometry N” value [2] was 2.
